{
  "source": "paper PMC6373949",
  "about": "“Expression optimization, purification, and functional characterization of cholesterol oxidase from Chromobacterium sp. DS1” (PLoS ONE, 2019)",
  "substrate": "CC(C)CCC[C@@H](C)[C@H]1CC[C@H]2[C@@H]3CC=C4C[C@@H](O)CC[C@]4(C)[C@H]3CC[C@]12C",
  "assay": "purified protein",
  "format": "biochemical, Chromobacterium sp. DS-1",
  "conditions": "0.1 M potassium phosphate pH 7, 25°C, cholesterol 0-1 mM",
  "data": [
    {"protein": "cholesterol oxidase from Chromobacterium sp. DS1 (ChO) (Chromobacterium sp. DS-1) (protein, synthetic gene in pET24b(+) NdeI-BamHI; 6xHis tag (N-terminal), no tag removal told; E. coli Rosetta-gami2(DE3); native enzyme 58 kDa) GRLTCSQPNNFPAEIPLYKQSFKNWAGDIKVDDVWTCAPRSADEVVKVANWAKDNGYKVRARGMMHNWSPLTLAAGVSCPAVVLLDTTRYLTAMSIDASGPVAKVTAQAGITMEALLTGLEKAGLGVTAAPAPGDLTLGGVLAINGHGTAIPAKGERRLAGASYGSISNLVLSLTAVVYDKASGAYALRKFARNDPQIAPLLAHVGRSLIVEATLQAAPNQRLRCQSWFNIPYGEMFAAAGSGGRTFASYLDSAGRVEAIWFPFTSNPWLKVWTVTPNKPLFSRQTDKPFNYPFSDNLPDEVTDLANKILSLGDGKLTPAFGKAQFAAASAGLVATASWDLWGWSKNLLLYVKPTTLRVTANGYAVLTRRENVQRVLNEFVTFYQARVQAYQQQGRYPMNGPVEIRVTGLDDPSEAALSGGVAPALSAIRPRPDHPEWNVAVWLDILTLPGTPYANQFYREIEQWIEANFNGSYAAVRPEWSKGWGYTDQAAWADSAMLQTTIPNAFRAGQPAAANWDAAKAALAAYDPYRLFSSPLLDSLGL", "values": [
      {"measurement": "Km", "result": 31, "unit": "µM"}
    ]}
  ]
}
